Data taken from the RNAGym collection of RNA variant scans (doi:10.1021/acssynbio.7b00057).

B1: Pistol ribozyme (parent)
chain: GGGUCGUUGUUCCAUAAUCGCGUGGAUAUGGCACGCAAGUUUCUACCGGGCACCGUAAAUGUCCGACUGGAGCCGUUCGGGCGGCUAUAAACAGACCUCAGGCCCGAAGCGUGGCGGCACCUGCCGCCGGUGGUAAAAAAGAUCGGAAGAGCACACGUCU

Variants of: B1
Assay: aptazyme ON/OFF ratio, guanine; higher = stronger switching; co-transcriptional cleavage with and without guanine

Variant | aptazyme ON/OFF ratio
GGGUCGACAAUGAAUAAUCGCGUGGAUAUGGCACGCAAGUUUCUACCGGGCACCGUAAAUGUCCGACUGGAGCCGUUCGGGCGGCUAUAAACAGACCUCAGGCCCGAAGCGUGGCGGCACCUGCCGCCGGUGGUAAAAAAGAUCGGAAGAGCACACGUCU [U7A U8C G9A U10A C12G C13A] | 1.14
GGGUCGACAAUGUAUAAUCGCGUGGAUAUGGCACGCAAGUUUCUACCGGGCACCGUAAAUGUCCGACUGGAGCCGUUCGGGCGGCUAUAAACAGACCUCAGGCCCGAAGCGUGGCGGCACCUGCCGCCGGUGGUAAAAAAGAUCGGAAGAGCACACGUCU [U7A U8C G9A U10A C12G C13U] | 1.28
GGGUCGACAAUGGAUAAUCGCGUGGAUAUGGCACGCAAGUUUCUACCGGGCACCGUAAAUGUCCGACUGGAGCCGUUCGGGCGGCUAUAAACAGACCUCAGGCCCGAAGCGUGGCGGCACCUGCCGCCGGUGGUAAAAAAGAUCGGAAGAGCACACGUCU [U7A U8C G9A U10A C12G C13G] | 1.25
GGGUCGACAAAACAUAAUCGCGUGGAUAUGGCACGCAAGUUUCUACCGGGCACCGUAAAUGUCCGACUGGAGCCGUUCGGGCGGCUAUAAACAGACCUCAGGCCCGAAGCGUGGCGGCACCUGCCGCCGGUGGUAAAAAAGAUCGGAAGAGCACACGUCU [U7A U8C G9A U10A U11A C12A] | 1.31
GGGUCGACAAAUCAUAAUCGCGUGGAUAUGGCACGCAAGUUUCUACCGGGCACCGUAAAUGUCCGACUGGAGCCGUUCGGGCGGCUAUAAACAGACCUCAGGCCCGAAGCGUGGCGGCACCUGCCGCCGGUGGUAAAAAAGAUCGGAAGAGCACACGUCU [U7A U8C G9A U10A U11A C12U] | 1.25
GGGUCGACAAAGCAUAAUCGCGUGGAUAUGGCACGCAAGUUUCUACCGGGCACCGUAAAUGUCCGACUGGAGCCGUUCGGGCGGCUAUAAACAGACCUCAGGCCCGAAGCGUGGCGGCACCUGCCGCCGGUGGUAAAAAAGAUCGGAAGAGCACACGUCU [U7A U8C G9A U10A U11A C12G] | 1.24
GGGUCGACAAUCGAUAAUCGCGUGGAUAUGGCACGCAAGUUUCUACCGGGCACCGUAAAUGUCCGACUGGAGCCGUUCGGGCGGCUAUAAACAGACCUCAGGCCCGAAGCGUGGCGGCACCUGCCGCCGGUGGUAAAAAAGAUCGGAAGAGCACACGUCU [U7A U8C G9A U10A C13G] | 1.07
GGGUCGACAAUCUAUAAUCGCGUGGAUAUGGCACGCAAGUUUCUACCGGGCACCGUAAAUGUCCGACUGGAGCCGUUCGGGCGGCUAUAAACAGACCUCAGGCCCGAAGCGUGGCGGCACCUGCCGCCGGUGGUAAAAAAGAUCGGAAGAGCACACGUCU [U7A U8C G9A U10A C13U] | 1.2
GGGUCGACAAUCAAUAAUCGCGUGGAUAUGGCACGCAAGUUUCUACCGGGCACCGUAAAUGUCCGACUGGAGCCGUUCGGGCGGCUAUAAACAGACCUCAGGCCCGAAGCGUGGCGGCACCUGCCGCCGGUGGUAAAAAAGAUCGGAAGAGCACACGUCU [U7A U8C G9A U10A C13A] | 1.22
GGGUCGACAACGAAUAAUCGCGUGGAUAUGGCACGCAAGUUUCUACCGGGCACCGUAAAUGUCCGACUGGAGCCGUUCGGGCGGCUAUAAACAGACCUCAGGCCCGAAGCGUGGCGGCACCUGCCGCCGGUGGUAAAAAAGAUCGGAAGAGCACACGUCU [U7A U8C G9A U10A U11C C12G C13A] | 1.09
GGGUCGACAACGGAUAAUCGCGUGGAUAUGGCACGCAAGUUUCUACCGGGCACCGUAAAUGUCCGACUGGAGCCGUUCGGGCGGCUAUAAACAGACCUCAGGCCCGAAGCGUGGCGGCACCUGCCGCCGGUGGUAAAAAAGAUCGGAAGAGCACACGUCU [U7A U8C G9A U10A U11C C12G C13G] | 1.17
GGGUCGACAACGUAUAAUCGCGUGGAUAUGGCACGCAAGUUUCUACCGGGCACCGUAAAUGUCCGACUGGAGCCGUUCGGGCGGCUAUAAACAGACCUCAGGCCCGAAGCGUGGCGGCACCUGCCGCCGGUGGUAAAAAAGAUCGGAAGAGCACACGUCU [U7A U8C G9A U10A U11C C12G C13U] | 1.2
GGGUCGACAACAUAUAAUCGCGUGGAUAUGGCACGCAAGUUUCUACCGGGCACCGUAAAUGUCCGACUGGAGCCGUUCGGGCGGCUAUAAACAGACCUCAGGCCCGAAGCGUGGCGGCACCUGCCGCCGGUGGUAAAAAAGAUCGGAAGAGCACACGUCU [U7A U8C G9A U10A U11C C12A C13U] | 1.25
GGGUCGACAACAGAUAAUCGCGUGGAUAUGGCACGCAAGUUUCUACCGGGCACCGUAAAUGUCCGACUGGAGCCGUUCGGGCGGCUAUAAACAGACCUCAGGCCCGAAGCGUGGCGGCACCUGCCGCCGGUGGUAAAAAAGAUCGGAAGAGCACACGUCU [U7A U8C G9A U10A U11C C12A C13G] | 1.18
GGGUCGACAACAAAUAAUCGCGUGGAUAUGGCACGCAAGUUUCUACCGGGCACCGUAAAUGUCCGACUGGAGCCGUUCGGGCGGCUAUAAACAGACCUCAGGCCCGAAGCGUGGCGGCACCUGCCGCCGGUGGUAAAAAAGAUCGGAAGAGCACACGUCU [U7A U8C G9A U10A U11C C12A C13A] | 1.14
GGGUCGACAAUUGAUAAUCGCGUGGAUAUGGCACGCAAGUUUCUACCGGGCACCGUAAAUGUCCGACUGGAGCCGUUCGGGCGGCUAUAAACAGACCUCAGGCCCGAAGCGUGGCGGCACCUGCCGCCGGUGGUAAAAAAGAUCGGAAGAGCACACGUCU [U7A U8C G9A U10A C12U C13G] | 1.2
GGGUCGACAAUUUAUAAUCGCGUGGAUAUGGCACGCAAGUUUCUACCGGGCACCGUAAAUGUCCGACUGGAGCCGUUCGGGCGGCUAUAAACAGACCUCAGGCCCGAAGCGUGGCGGCACCUGCCGCCGGUGGUAAAAAAGAUCGGAAGAGCACACGUCU [U7A U8C G9A U10A C12U C13U] | 1.12
GGGUCGACAAUUAAUAAUCGCGUGGAUAUGGCACGCAAGUUUCUACCGGGCACCGUAAAUGUCCGACUGGAGCCGUUCGGGCGGCUAUAAACAGACCUCAGGCCCGAAGCGUGGCGGCACCUGCCGCCGGUGGUAAAAAAGAUCGGAAGAGCACACGUCU [U7A U8C G9A U10A C12U C13A] | 1.11
